Like-named read-outs stand apart in the source and are kept apart here.
Tests used:
Assay in all cases: native MS
native MS [1] = target: the molecule itself
δδ′ subcomplex = δδ′ subcomplex (E. coli, UniProt P28630 1-343; P28631 1-334)
native MS [2] = target: the molecule itself; remark: listed apart in the source

B1: γ subunit (DnaX) of the E. coli clamp loader (natural protein, UniProt P06710-2 1-431, looked up)
chain: MSYQVLARKWRPQTFADVVGQEHVLTALANGLSLGRIHHAYLFSGTRGVGKTSIARLLAKGLNCETGITATPCGVCDNCREIEQGRFVDLIEIDAASRTKVEDTRDLLDNVQYAPARGRFKVYLIDEVHMLSRHSFNALLKTLEEPPEHVKFLLATTDPQKLPVTILSRCLQFHLKALDVEQIRHQLEHILNEEHIAHEPRALQLLARAAEGSLRDALSLTDQAIASGDGQVSTQAVSAMLGTLDDDQALSLVEAMVEANGERVMALINEAAARGIEWEALLVEMLGLLHRIAMVQLSPAALGNDMAAIELRMRELARTIPPTDIQLYYQTLLIGRKELPYAPDRRMGVEMTLLRALAFHPRMPLPEPEVPRQSFAPVAPTAVMTPTQVPPQPQSAPQQAPTVPLPETTSQVLAARQQLQRVQGATKAKKE
- stoichiometry N (native MS [1]): 3
- binding result (δδ′ subcomplex): binds
- stoichiometry N (native MS [2]): 4

From article PMC4869865 (Structure (London, England : 1993), 2010)
